# From patent US20070009524A1
# How the values were obtained:
# [1] = biological target: human lymphotoxin (TNFβ) (human) (UniProt P01374); assay: cell-based or functional assay
# [2] = biological target: human tumor necrosis factor-α (TNFα) (human) (UniProt P01375); assay: cell-based or functional assay
# human tumor necrosis factor-α (TNFα) (human), sequence (P01375 77-233): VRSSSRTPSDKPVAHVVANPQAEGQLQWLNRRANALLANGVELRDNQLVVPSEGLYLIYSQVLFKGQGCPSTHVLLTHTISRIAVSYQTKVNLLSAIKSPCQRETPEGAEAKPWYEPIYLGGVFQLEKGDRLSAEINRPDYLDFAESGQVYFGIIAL
# human lymphotoxin (TNFβ) (human), sequence (P01374 35-205 limits assumed): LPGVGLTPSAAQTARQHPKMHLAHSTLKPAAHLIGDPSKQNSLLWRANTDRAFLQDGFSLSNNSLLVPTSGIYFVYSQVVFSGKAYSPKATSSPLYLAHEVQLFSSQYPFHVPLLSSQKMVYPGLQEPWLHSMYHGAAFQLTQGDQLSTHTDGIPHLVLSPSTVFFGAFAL
molecule,measurement,setting,value
p75P-sf2 fusion protein (from UniProt P20333 23-204) (Fc fusion),concentration to half-inhibit human TNFβ at 2 pM (WEHI 164 cytotoxicity),[1],31 pM
"chimeric mouse/human IgG1 anti-platelet mAb (7E3) (antibody, INN chains, looked up, V domains shown, chimeric IgG1) VH: EVQLQQSGTVLARPGASVKMSCEASGYTFTNYWMHWVKQRPGQGLEWIGAIYPGNSDTSYIQKFKGKAKLTAVTSTTSVYMELSSLTNEDSAVYYCTLYDGYYVFAYWGQGTLVTVSA VL: EIVLTQSPVTLSVTPGDSVSLSCRASRDISNNLHWFQQTSHESPRLLIKYASQSMSGIPSRFSGSGSGTDFTLSINSVETEDFGMYFCQQTNSWPYTFGGGTKLEIK","IL-6 secreted by FS-4 fibroblasts, TNF 0.3 ng/ml, 4 µg/ml antibody",[2],1.6 ng/mL
same,"IL-6 secreted by FS-4 fibroblasts, TNF 1.5 ng/ml, 4 µg/ml antibody",[2],1.96 ng/mL
same,"IL-6 secreted by FS-4 fibroblasts, TNF 7.5 ng/ml, 4 µg/ml antibody",[2],2.16 ng/mL
